Source: paper PMC6101581
Where two headings read alike, the source gives them in different places.

What was measured:
[1] = target: T1, RPA heterotrimer (UniProt P27694;P15927;P35244 1-616;1-270;1-121); assay: EMSA
[2] = target: T2, hUNG2 full-length (human, UniProt P13051 1-313); assay: fluorescence anisotropy
[3] = target: T2, hUNG2 full-length; assay: fluorescence anisotropy; remark: listed apart in the source
[4] = target: hUNG2 catalytic domain (human, UniProt P13051 92-313); assay: fluorescence anisotropy
hUNG2 catalytic domain, sequence (P13051 92-313): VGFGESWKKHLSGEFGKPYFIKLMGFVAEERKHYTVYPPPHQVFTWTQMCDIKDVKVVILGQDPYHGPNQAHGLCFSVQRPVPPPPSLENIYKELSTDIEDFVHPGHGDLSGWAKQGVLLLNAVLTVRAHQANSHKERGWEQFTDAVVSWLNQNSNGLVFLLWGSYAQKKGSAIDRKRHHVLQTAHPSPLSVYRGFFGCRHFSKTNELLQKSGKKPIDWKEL

[5] = target: T1, RPA heterotrimer; assay: EMSA; remark: listed apart in the source

T1 sequence (P27694 whole entry, chain 1 of 3): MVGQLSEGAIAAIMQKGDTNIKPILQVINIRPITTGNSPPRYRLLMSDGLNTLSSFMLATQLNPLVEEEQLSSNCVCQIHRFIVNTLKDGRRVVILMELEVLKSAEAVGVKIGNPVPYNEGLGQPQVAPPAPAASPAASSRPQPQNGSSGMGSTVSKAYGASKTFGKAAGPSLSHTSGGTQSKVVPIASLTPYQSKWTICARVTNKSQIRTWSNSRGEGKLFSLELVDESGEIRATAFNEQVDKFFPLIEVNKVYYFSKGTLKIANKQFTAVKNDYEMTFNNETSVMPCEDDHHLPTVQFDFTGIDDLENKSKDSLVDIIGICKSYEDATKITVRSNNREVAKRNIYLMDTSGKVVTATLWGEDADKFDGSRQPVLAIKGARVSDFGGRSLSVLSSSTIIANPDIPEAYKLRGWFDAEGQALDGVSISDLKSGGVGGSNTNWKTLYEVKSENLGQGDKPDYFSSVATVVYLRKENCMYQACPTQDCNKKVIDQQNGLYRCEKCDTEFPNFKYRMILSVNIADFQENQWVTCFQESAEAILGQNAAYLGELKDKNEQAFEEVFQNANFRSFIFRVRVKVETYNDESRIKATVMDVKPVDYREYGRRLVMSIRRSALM
T1 sequence (P15927 whole entry, chain 2 of 3): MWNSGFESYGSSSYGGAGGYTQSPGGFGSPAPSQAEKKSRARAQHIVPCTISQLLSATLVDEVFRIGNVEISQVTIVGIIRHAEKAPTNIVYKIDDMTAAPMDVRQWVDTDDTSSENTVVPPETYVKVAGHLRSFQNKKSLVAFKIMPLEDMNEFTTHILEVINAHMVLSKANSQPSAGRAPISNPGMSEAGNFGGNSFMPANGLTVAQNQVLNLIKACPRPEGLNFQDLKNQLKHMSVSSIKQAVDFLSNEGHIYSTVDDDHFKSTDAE
T1 sequence (P35244 whole entry, chain 3 of 3): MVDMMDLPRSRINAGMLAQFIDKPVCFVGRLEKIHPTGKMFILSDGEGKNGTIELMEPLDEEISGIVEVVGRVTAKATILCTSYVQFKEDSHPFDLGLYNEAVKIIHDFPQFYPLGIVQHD
T2 sequence (P13051 whole entry): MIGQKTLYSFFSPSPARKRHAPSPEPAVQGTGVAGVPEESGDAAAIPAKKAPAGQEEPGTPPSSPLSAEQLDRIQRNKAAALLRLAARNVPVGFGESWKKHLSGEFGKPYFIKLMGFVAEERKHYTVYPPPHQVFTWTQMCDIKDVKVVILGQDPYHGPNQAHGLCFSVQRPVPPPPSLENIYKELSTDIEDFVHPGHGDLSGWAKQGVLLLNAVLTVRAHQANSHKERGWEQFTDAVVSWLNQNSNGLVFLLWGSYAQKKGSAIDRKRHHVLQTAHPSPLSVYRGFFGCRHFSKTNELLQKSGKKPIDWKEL

B1: 55 bp duplex U9/U33 with 32 nt 5' overhang (oligos 9/10) (mixed)
DNA 1: ATCGAGCTGGACACCATCACTCCATATTGGTCACTTAGCTATCGATTCCCGCATGCTCTTAGCTATCGATTCACCTGAGACTAGTCA
DNA 2: TGACTAGTCTCAGGTGAATCGAUAGCTAAGAGCATGCGGGAATCGAUAGCTAAGT
modifications: two deoxyuridines in strand 2
binding result [1]: binds

B2: 29 bp duplex with 29 nt 5' ssDNA overhang (oligos 15/16) (mixed)
DNA 1: CACGCGTGGCCCGGCAGTTATCCAGCACCACTTAGCTATCGATTCCCGCATGCTCTGA
DNA 2: TCAGAGCATGCGGGAATCGATAGCTAAGT
binding result [2]: binds

CACGCGTGGCCCGGCAGTTATCCAGCACC (ssDNA) [29 nt ssDNA (oligo 14)]
binding signal [3]: 3 fold higher affinity than N1 (29 bp dsDNA)

B3: 55 bp duplex U21/U45 with 32 nt 5' overhang (oligos 4/5) (mixed)
DNA 1: ATCGAGCTGGACACCATCACTCCATATTGGTCACTGCATGCTCTTCTTAGCTATCGATTCACCTGAGACCTTAGCTATCGATTCTCA
DNA 2: TGAGAATCGAUAGCTAAGGTCTCAGGTGAATCGAUAGCTAAGAAGAGCATGCAGT
modifications: two deoxyuridines in strand 2
binding result [1]: binds

B4: 29 bp duplex (oligos 13/14) (dsDNA)
DNA 1: GGTGCTGGATAACTGCCGGGCCACGCGTG
DNA 2: CACGCGTGGCCCGGCAGTTATCCAGCACC
binding signal [4]: 3 fold lower affinity than full-length hUNG2

B5: 55 bp duplex U9/U33 with 32 nt 3' overhang (oligos 18/19) (mixed)
DNA 1: ACTGATCAGAGTCCACTTAGCTATCGATTCTCGTACGCCCTTAGCTATCGATTCACTGGTTATACCTCACTACCACAGGTCGAGCTA
DNA 2: TGAATCGAUAGCTAAGGGCGTACGAGAATCGAUAGCTAAGTGGACTCTGATCAGT
modifications: two deoxyuridines in strand 2
binding result [5]: binds
